B1: TPR t1 (parent)
chain: GACCAAUCUGCCCUCAGAGCUCGAGAACAUCUUCGGAUGCAGAGGAGGCAGGCUUCGGUGGCGCGAUAGCGCCAACGUCCUCAACCUCCAAUGCAUCCCACCACAUGAUGAUGCCUGAAGAGCCUUGGUUUUUUG

Variants of: B1
Assay: polymerase ribozyme fitness, log enrichment relative to wild type (log ratio); higher = more active; in vitro selection for triplet polymerase activity
How it was run: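 Fitness is a logarithmic measure of how a genotype enriched relative to the wild type, with replicate averages weighted by inverse variance. The logarithm uses base 2, and enrichment came from Illumina sequencing of input and output libraries. Those libraries were PCR-built, transcribed mutants of each subunit of a heterodimeric triplet polymerase ribozyme, passed through one triplicate in vitro selection round that included frozen incubation at −7 °C, gel excision of extended constructs and streptavidin-bead capture. Genotypes were kept only if they had ≥10 input reads and ≥1 read per output.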

Point of comparison: GACCAAUCUGCCCUCAGAGCUCGAGAACAUCUUAGGAUGCAGAGGAGGCAGGCUUAGGUGGCGCGAUAGCGCCAACGUCCUCAACCUCCAAUACAUUCCACCACAUGAUGAUGCCUGAAGAGCCUUGGUUUUUUG [C34A C56A G93A C97U], “polymerase ribozyme fitness (log ratio)” value -4.7. Against it:
- GACCAAUCUGCCCUCAGAGCUCGAGAACAUCUGCGGAUGCAGAGGAGGCAGGCUUCGGUGGCGCGAUAGCGCCAAGGUCCUCAACCUACAAUGCAUCCCACCACAUGAUGAUGCUUGAAGAGCCUUGGUUUUUUG [U33G C76G C88A C115U] — lower, -6.6
- GACCAAUCUGCCCUCAGAGCUCGAGAACAUCUGCGGAUGCAGAGGAGGCAGGCUUCGGUGGCGCGAUAGUGCCAACGGCCUCAACCUCCAAUGCAUCCCACCACAUGAUGAUGCCUGAAGAGCCUUGGUUUUUUG [U33G C70U U78G] — lower, -6.53
- GACCAAUCUGCCCUCAGAGCUCGAGAACAUCUGCGGAUCCAGAGGAGGCAGGCUUCGGUGGCGCGAUAGCGCCAACGUCCUCAACCUCCAAUGCAUCCCACCACAUGAUUAUGCCUGAAGAGCCUUGGUUUUUUG [U33G G39C G110U] — lower, -6.35
- GACCAAUCUGCCCUCAGAGCUCGAGAACAUCUGCGGAUGCAGAGGAGGCAGCCUUAGGUGACGCGAUAGCGCCAACGUUCUCAACCUCCAGUGCAUCCCACCACAUGAUGAUGCCUGAAGAGGCUUGGUUGUUUG [U33G G52C C56A G61A C79U A91G C123G U131G] — lower, -7.1
- GACCAAUCUGCCCUCAGAGCUCGAGAACAUCUGCGGAUGCAGAGGAGGCAGGCUUCGGUGGCGCGAUAGCGCCAACGUCCUCAACCUCCAAUACAUCCCUCCACAUGAUGAUGUCUGAAGAGCCUUGGUUUUUUG [U33G G93A A100U C114U] — lower, -7.04
- GACCAAUCUGCCCUCAGAGCUCGAGAACAUCUUAGGAUGCAGAGGAGGCAGGCUUCGGUGGCGCGAUAGAGCCAACGUCCUCAACCUCCAAUGCAUCCCACCACAUGAUGAUGCCUGAAGAGCCUUGGUUUUUUG [C34A C70A] — higher, -4.06
- GACCAAUCUGCCCUCAGAGCUCGAGAACAUCUCCGGAUUCAGAGGAGGCAGGCUUCGGUGGCGCGAUAGCGCCAACGUCCUCAACCUCCAAUGCAUCCCACCACAUGAUGAUGCCUGAAGAGCCUUGGUUUUUUG [U33C G39U] — lower, -5.33
- GACCAAUCUGCCCUCAGAGCUCGAGAACAUCUGCUGAUGCAGAGGAGGCAGGCUUCGGUGGCGCGAUAUCGCCAACGGCCUCAACCUCCACUGCAUCCCACCACAUGAUGAUGGCUGAAGAGCCUUGCUUUAUUA [U33G G35U G69U U78G A91C C114G G128C U132A G135A] — lower, -5.79
- GACCAAUCUGCCCUCAGAGCUCGAGAACAUCUUAGGAUGCAGUGGAGGCAGGCUUCGGUGGCGCGAUAGCGCCAACGUCCUCAACCUCCAAUGCAUCCCACCACAUGAUGAUGCCUGAAGAGCCUUGGUUUUUUG [C34A A43U] — lower, -5.98
- GACCAAUCUGCCCUCAGAGCUCGAGAACAUCUGCGGAUGCAGAGGAGGCAGGCUUCGGUGACGCGAUAGCGCCAACGUCCUCAACCUCCAAUGCAUCCCACCACAUGAUGAUGCCUGAAGUGCCUUUGUUUUAUG [U33G G61A A121U G127U U133A] — higher, -3.67
- GACCAAUCUGCCCUCAGAGCUCGAGAACAUCUUAGGAUGCAGAGGAGGGAGGCUUCGGUGGCGCGAUAGCGCCAAGGUCCUCAACCUCCAAUGCAACCCACCACAUGAUGAUGCCUGAAGAGCUUUGGUUGUUCG [C34A C49G C76G U96A C124U U131G U134C] — higher, -2.1
- GACCAAUCUGCCCUCAGAGCUCGAGAACAUCUUAGGAUGCAGAGGAGGCAGGCUUCGGUGGCGCGAUAGCGUCAACGUCCUCAACCUCCAAUGCAUCCCACCACAUGAUUAUGCCUGAAGAGCCUUGGUUUUUUG [C34A C72U G110U] — lower, -6.56
- GACCAAUCUGCCCUCAGAGCUCGAGAACAUCUGCGGAUGCAGAGGAGGCAGGCUUCGGUGGCGUGAUAGCGCCAACGUCCUCAACCUCCAAUGCAUCCCACCACAUGAUGAGGCCUGAAGAGCCUUGGUUUUUUG [U33G C64U U112G] — lower, -6.48
- GACCAAUCUGCCCUCAGAGCUCGAGAACAUCUUAGGAUGCAGAGGGGGCAGGCGUCGGUGGCGCGAUAGCGCCAACGUCCUCAACCUCCAAUGCAUCCCACCACAUGAUGAUGCCUGAAGAGCCUUGGUUUUUUG [C34A A46G U54G] — higher, -2.69
- GACCAAUCUGCCCUCAGAGCUCGAGAACAUCUUAGGAUGCAGAGGAGGCAGGCUUCGGUGGCGCGAUAGCGCCAACGUCCUCAACCUCCAAUGCUUCCCACCACAUGAUGAUGCCUGAAGAGCCUUGGUUUUUUG [C34A A95U] — higher, -3.54
- GACCAAUCUGCCCUCAGAGCUCGAGAACAUCUUAGGAUGAAGAGGAGGGAGGCUUCGGUGGCGCGAUAGCGCCAACAUCCUCAACCUCCAAUGCAUCCCACCACAUGAUGAAGCGUGAAGAGCCUUGGUUUUUUG [C34A C40A C49G G77A U112A C115G] — lower, -7.22
- GACCAAUCUGCCCUCAGAGCUCGAGAACAUCUUAGGAUGCAGAGGAGGCAGGCUUCGGUGGCGCGAUAGCGCCAACGUCCUCAACCUCCAAUGCAUCCCGCCACAUGAUGAUGCCUGAAGAGCCUUGGUUUUUUG [C34A A100G] — lower, -5.07
- GACCAAUCUGCCCUCAGAGCUCGAGAACAUCUGCGGAUGCAGAGGAGUCAGGCUUCGGUAGCGCGAUAGCGCCAACGUCCUCAACCUCCAAUGCAUGCCACCACAUGAUGAUGCCUGAAAAGCCUUGGUUUUUUG [U33G G48U G60A C97G G120A] — lower, -7.27
- GACCAAUCUGCCCUCAGAGCUCGAGAACAUCUUAGGAUGCAGAGGAGGCAGGCUUCGGUGGCGCGAUAGCGGCAACGUCCUCAACCUCCAAUGCAUCCCACCACAUUAGGAUGCCUGAAGGGCCUUGGUUUUUUG [C34A C72G G107U U109G A121G] — lower, -5.86
- GACCAAUCUGCCCUCAGAGCUCGAGAACAUCUUAGGAUGCAGAGGAGGCUGGUUUCGGUGGCGCGAUAGCGCCAACGUCCUCAACCUCCAAUGCAUCCCACCACAUGAUGAUGCCUGAAGCGCCUUGGUUUUUUG [C34A A50U C53U A121C] — lower, -4.91

From the RNAGym collection of RNA variant scans (doi:10.1073/pnas.2313332121)
